# Measured values published in the RNAGym collection of RNA variant scans (doi:10.7554/elife.90254).
# B1: LINE1-full (parent)
# chain: UACGUAGGUGGUUUUCCCCUGAUAGUGCUAAGGGGGCCUGGAAGUUUGGACUGGGCAGAGCUCAACACAGCGUGGCAAAGUGGCUGUGGCUAGACUGCCUCUCUGGAUUCCUCGUCACUCAGCAGGGCAUCUCUGAGAGAAAUGCC
# Variants of: B1
# Experiment: self-cleavage, relative activity (ratio to wild type); higher = more cleavage; in vitro, sequencing; the parent is a self-cleaving ribozyme
row,Variant,self-cleavage
1,U100C A138G,1.83
2,U20C C110U,1.4
3,A22U U96A,0.09
4,U9C A30U,0.87
5,A22G A78C,1.45
6,A22U U104C,1.31
7,U5A U102C,0.95
8,U13C U96A,0.11
9,U13A A136U,1.22
10,U96A U132A,0.08
11,U130A U132C,1.41
12,U20A U39C,0.93
13,U87A U119A,0.08
14,A92C A142G,0.33
15,U104C A138G,1.87
16,A67C A117G,0
17,A94G A129U,0.22
18,U23C U87C,0.25
19,G8A U85C,0.25
20,A69C U81C,0
21,G36C A140G,1.12
22,A107C,1.56
23,A107G,1.46
24,A59U A117U,0.8

row,Variant,self-cleavage
1,G10A A64G,0.22
2,U20A A77C,1.75
3,A94U U96A,0.08
4,A43G U100A,0.89
5,U23A A136G,1.31
6,U73A U96C,0.1
7,U20A U73C,1.42
8,C61U U73A,0.02
9,C28A A77U,1.42
10,A31U U91C,0.38
11,A65C A140G,0.05
12,U23C U100A,1.3
13,U52C G106U,0.8
14,A6G A79G,0.8
15,A78U U91G,0.11
16,C18A A138G,2.26
17,A67G U81A,0.63
18,A79G G89U,0.05
19,G72U,0.9
20,A22U A30G,1.98
21,U12C,1.29
22,A22G U102A,1.5
23,U26A G55A,0.25
24,G127A C128U,1.13

row,Variant,self-cleavage
1,U12G A121C,1.29
2,U13A A31C,1.52
3,U1C A31C,1.33
4,C37U G88A,0.04
5,U47A U100G,1.93
6,A92C A121U,0.05
7,A50G U134G,0.19
8,U45C A67U,0.12
9,C84U U119C,0.12
10,A50U C111U,0.77
11,U14C C95U,0.21
12,A22U A117G,0.65
13,A78G A79U,0.52
14,A67G A77G,0.91
15,A92U A129G,0.69
16,U20C C28A,0.84
17,U91A A136U,0.54
18,U26C C111A,1.04
19,A141G A142G,1.45
20,A57U U81C,0.12
21,U73C U85A,0.08
22,A50G U62G,0.1
23,A64G U85C,0.1
24,U108A U132C,1.65

row,Variant,self-cleavage
1,G33U A124U,1.84
2,U39C C63A,0.05
3,U45G A57G,0.9
4,U46G U102C,1.19
5,G55A U96C,0.04
6,C17U A65U,0.07
7,G35A C76U,2.14
8,G8A G44A,1.08
9,U91A A140G,0.45
10,A22U A67G,0.41
11,C18G A124G,1.02
12,U119C G122U,2.35
13,U26A A107G,1.06
14,G74C C99U,0.61
15,C95U,0.14
16,U15C C146G,1.45
17,A67G U100A,0.06
18,G34A A92G,0.08
19,G97A A138G,0.14
20,U26A A69U,0.08
21,A57G A59G,0.62
22,U143C G144A,2.03
23,U9G A142G,0.95
24,A138U U143C,1.23

row,Variant,self-cleavage
1,U52A C111A,1.25
2,A79U U102A,2.23
3,U132C U134A,0.73
4,G21A U29C,1.04
5,U20C,1.37
6,U109G U143C,0.87
7,U15A A142C,1.71
8,C18U A78G,0.88
9,C18U A78U,0.9
10,U9G G74A,0.88
11,A50G A124G,0.51
12,A78U A117G,2.93
13,A57G A78U,1.62
14,G34C A141G,1.66
15,A107G U108A,1.47
16,G88C U132C,0.09
17,U12G A69G,0.77
18,U132C G135A,1.19
19,U14A U52A,1.09
20,G21A C146U,1.56
21,A6U A129U,1.52
22,A42G A121G,1.59
23,U12C U52C,1.11
24,A77C U115C,0.6

row,Variant,self-cleavage
1,U87G A94U,0.13
2,U20C A79U,1.7
3,A6G U112A,0.95
4,U62A A79U,0.03
5,A43G G60A,0.04
6,U39C C123U,0.9
7,U14C G32A,0.99
8,U87A G88C,0.08
9,C71G U112C,0.37
10,U15A A136G,1.26
11,U12A C51A,1.16
12,C16G C71G,0.42
13,U73C U132C,2.09
14,U52G U85A,0.17
15,U119A U132C,1.96
16,A31U U45A,0.9
17,U87C U119G,0
18,U87C U132C,0.19
19,U14C U85A,0.08
20,G74A A129G,1.53
21,U5C A42U,1.04
22,U23C C61A,0.06
23,U15C U26C,1.33
24,A50U U96A,0.03

row,Variant,self-cleavage
1,A22U U91A,0.3
2,A57C C61U,0.05
3,U20A G48U,1.42
4,A117G A141G,1.71
5,G40A U115C,1.18
6,U73C C90U,0.01
7,A94G U96C,0.11
8,U13G A142G,1.41
9,G11A A94G,0.08
10,U1C A69C,0.07
11,A64G U100A,0.23
12,U5A A69U,0.09
13,U20C G36C,1.51
14,G32A U47A,1.37
15,U39G U143C,1.81
16,U29C A31U,1
17,U45A A94U,0.2
18,A50G A140U,0.93
19,U14C G137A,0.82
20,G40C A42G,1.09
21,U5A C95U,0.14
22,U45A A57U,0.08
23,U20C U109C,1.34
